Tests used:
[1] = test system: pro- (TNF-α, IL-1β, IL-6) and anti- (IL-10) inflammatory cytokines; test: ELISA of cytokine plasma levels post CLP-induced septic shock; type: in vivo, C57BL/6J mice
Procedure: (§1) Plasma levels of rshCD6 were determined by sandwich ELISA, using unlabelled (161.8) and biotin-labelled (SPV-L14.2) anti-CD6 monoclonal antibodies (2 μg/mL, each) as capture and detection antisera, respectively. Serial dilutions of purified rshCD6 were used as a standard. Diluted or undiluted plasma samples were used for monitoring IL-6 (1:70; Mouse IL-6 ELISA Set, BD Bioscience-555240), TNF-α (1:10; Mouse TNF-α ELISA Set, BD Bioscience-558534), IL-10 (neat; Mouse IL-10 ELISA Set, BD Bioscience-555252), and IL-1β (neat; Mouse IL-1β ELISA Set, BD Bioscience-559603) levels by commercially available ELISA kits, following manufacturer's instructions. Plates were developed with horseradish peroxidase-labeled streptavidin (Roche Diagnostics) and TMB Substrate Reagent Set (BD OptEIA, BD Biosciences), and further measurement of optical density at 450 nm (OD450 nm).

[2] = test system: bacterial load; test: Bacterial load (cfu) post CLP-induced septic shock; type: in vivo, C57BL/6J mice
Procedure: Blood samples were taken from live mice by facial vein puncture at 4 h post-CLP. Peritoneal, spleen and kidney samples were obtained from euthanized mice at 20 h post-CLP. For peritoneal lavage, euthanized mice were i.p. infused with 3 mL cold PBS. After gently abdominal massaging for 5 min, the peritoneal fluid was collected taking care to avoid clogging by the fat tissue and not to damage internal organs. Blood-contaminated peritoneal samples were discarded. The collected peritoneal fluid was centrifuged (3500 rpm, 10 min at 4° C.) and the pellet resuspended in 200 μL PBS. Spleen (100 mg) and kidney (250 mg) homogenization was performed by pressing the organs with a syringe plunger through a 40 μm cell strainer in 3 mL cold PBS. The resulting homogenates were centrifuged (3500 rpm, 10 min at 4° C.) and pellets resuspended in 750 μL PBS. Serial dilutions of blood, peritoneal lavage, and spleen and kidney homogenates were prepared in sterile PBS for plating on agar with 5% sheep blood (Becton Dikinson, UK) at 37° C. overnight. Viable bacterial counts were expressed as colony-forming units (cfu) per mL or mg.

[3] = parameters: species or system C57BL/6J mice; details: mouse, in vivo, 1.25 mg/kg
Procedure: as §1

[4] = test system: septic shock induced by G+ and G− bacterial endotoxins (LTA+PGN, and LPS) and whole alive bacteria (Staphylococcus aureus, Acinetobacter baumannii); details: prophylactic infusion; mouse models of septic shock; cited from earlier work
[5] = test system: LPS-induced septic shock; details: intraperitoneal (i.p.) administration, mice; cited from earlier work
[6] = test system: CLP-induced polymicrobial septic shock; test: Mouse survival after cecal ligation and puncture (CLP)-induced septic shock
Procedure: CLP-induced septic shock was induced in 8-10 week old C57BL/6J male mice (20-25 g; Charles River) following previously reported methods (Rittirsch D, et al., 2009. Immunodesign of experimental sepsis by cecal ligation and puncture. Nat Protoc 4:31-36). The severity of the CLP model was adjusted to achieve a high-grade mortality (meaning ≥90% mortality in the first 48-72 h) by ligating 75% of cecum. Mice were anesthetized with 100 mg/kg ketamine (Imalgéne 1000, Merial) and 10 mg/kg xylazine (Rompun, Bayer) subsequently resuscitated with 1 mL saline serum intraperitoneally (i.p.). To mitigate pain effects, 0.05 mg/kg/12 h Buprenorphin was administered subcutaneously. […] Daily weight loss monitoring (usually was of 10-15% in the first 48 h post-CLP) allowed exclusion of animals not undergoing clinical sepsis.
The survival data were represented in Kaplan-Meier graphs and analysed by the Log-Rank χ^2 test. Statistical significant differences (P<0.01) were determined by 2-tailed non parametric Mann-Whitney test.

[7] = prophylactic (−1 h) 1.25 mg/kg i.p., +4 h, +20 h post-CLP, FIG. 1C
[8] = therapeutic (+1 h) 1.25 mg/kg i.p., 4 and 20 h post-CLP, FIG. 2C
[9] = prophylactic (−1 h) 1.25 mg/kg i.p., FIG. 1D
[10] = therapeutic (+1 h) 1.25 mg/kg i.p., FIG. 2D
[11] = single dose 1.25 mg/kg i.p. 1 h before (−1 h) CLP induction, FIG. 1A

B1: rshCD6: recombinantly obtained soluble human CD6 ectodomain (SEQ ID NO: 1) (protein, listed as Homo sapiens)
chain: DQLNTSSAESELWEPGERLPVRLTNGSSSCSGTVEVRLEASWEPACGALWDSRAAEAVCRALGCGGAEAASQLAPPTPELPPPPAAGNTSVAANATLAGAPALLCSGAEWRLCEVVEHACRSDGRRARVTCAENRALRLVDGGGACAGRVEMLEHGEWGSVCDDTWDLEDAHVVCRQLGCGWAVQALPGLHFTPGRGPIHRDQVNCSGAEAYLWDCPGLPGQHYCGHKEDAGVVCSEHQSWRLTGGADRCEGQVEVHFRGVWNTVCDSEWYPSEAKVLCQSLGCGTAVERPKGLPHSLSGRMYYSCNGEELTLSNCSWRFNNSNLCSQSLAARVLCSASRSLHNLSTPEVPASVQTVTIESSVTVKIENKESR
- plasma level of IL-1β compared to saline-treated group [1, 7]: significantly lowered
- plasma level of IL-6 compared to saline-treated group [1, 7]: significantly lowered
- plasma level of IL-10 compared to saline-treated group [1, 7]: higher levels
- plasma level of TNF-α compared to saline-treated group [1, 7]: significantly lowered
- plasma level of IL-1β compared with saline-treated group [1, 8]: lower pro-inflammatory cytokine levels, which reached statistical significance
- plasma level of IL-6 compared with saline-treated group [1, 8]: lower pro-inflammatory cytokine levels, which reached statistical significance
- plasma level of IL-10 compared with saline-treated group [1, 8]: no differences observed
- plasma level of TNF-α compared with saline-treated group [1, 8]: lower pro-inflammatory cytokine levels
- bacterial load from blood compared to saline-treated group [2, 9]: lowered
- bacterial load from kidney compared to saline-treated group [2, 9]: lowered
- bacterial load from spleen compared to saline-treated group [2, 9]: lowered
- bacterial load (cfu) from blood with regard to saline-treated group [2, 10]: lower cfu
- bacterial load (cfu) from kidney with regard to saline-treated group [2, 10]: lower cfu
- bacterial load (cfu) from spleen with regard to saline-treated group [2, 10]: lower cfu
- maximal plasma levels achieved via i.v. versus via i.p. [3]: higher
- time of decrease to nearly basal plasma levels ([3]; ip): ≤ 6 h
- time of maximal rshCD6 plasma levels ([3]; ip): 3 h
- time of decline to nearly basal plasma levels ([3]; iv): ≤ 6 h
- time of maximal and sustained plasma levels ([3]; iv): 1 to 3 h
- mortality [4]: significantly reduces
- serum levels of pro-inflammatory cytokines (IL-1β, IL-6 and TNF-α) [4]: significantly reduces
- lethal effects caused by LPS-induced septic shock [5]: counteracts the lethal effects
- prophylactic dose giving statistical significant results on survival ([6]; i.p. 1 h before CLP, FIG. 1B): above 0.625 mg/kg
- prophylactic dose reaching maximal efficacy on survival ([6]; i.p. 1 h before CLP, FIG. 1B): 2.5 mg/kg
- optimal rshCD6 dose in mice ([6]; mice): 1.25 to 2.50 mg/kg
- survival ([6]; repeated dosage 1.25 mg/kg i.p. at +1 h, +3 h and +6 h post-CLP, FIG. 2B): 26.32%
- survival [6, 11]: 47.06%
- survival ([6]; single dose 1.25 mg/kg i.v. at +1 h post-CLP, FIG. 3B): 30%
- survival ([6]; single dose 1.25 mg/kg i.v. at +3 h post-CLP, FIG. 3B): 20%
- survival ([6]; single dose 1.25 mg/kg i.v. at +6 h post-CLP, FIG. 3B): 40%
- survival ([6]; single infusion 1.25 mg/kg i.p. at +1 h post-CLP, FIG. 2A): 29.03%
- survival ([6]; single infusion 1.25 mg/kg i.p. at +3 h post-CLP, FIG. 2A): 14.28%
- survival ([6]; single infusion 1.25 mg/kg i.p. at +6 h post-CLP, FIG. 2A): 17.65%

B2: rshCD5: purified recombinant soluble human CD5 protein, used as comparison protein (protein, UniProt P06127 25-372, looked up)
extracellular domain: RLSWYDPDFQARLTRSNSKCQGQLEVYLKDGWHMVCSQSWGRSSKQWEDPSQASKVCQRLNCGVPLSLGPFLVTYTPQSSIICYGQLGSFSNCSHSRNDMCHSLGLTCLEPQKTTPPTTRPPPTTTPEPTAPPRLQLVAQSGGQHCAGVVEFYSGSLGGTISYEAQDKTQDLENFLCNNLQCGSFLKHLPETEAGRAQDPGEPREHQPLPIQWKIQNSSCTSLEHCFRKIKPQKSGRVLALLCSGFQPKVQSRLVGGSSICEGTVEVRQGAQWAALCDSSSARSSLRWEEVCREQQCGSVNSYRVLDAGDPTSRGLFCPHQKLSQCHELWERNSYCKKVFVTCQDPNP
modifications: extracellular domain
- survival [6, 11]: 11.11%

From patent publication US11324804B2, “Combined CD6 and imipenem therapy for treatment of infectious diseases and related inflammatory processes” (Sepsia Therapeutics, S.L., priority 2016, dated 2022)
